Source: patent US20100260677A1, “METHODS AND SYSTEMS FOR TREATMENT AND/OR DIAGNOSIS” (Massachusetts Institute of Technology, priority 2009, published 2010)
Positions of bridges follow the written chain, without caps; N, C: chain ends. Non-standard residues stand in square brackets, D forms with d. No end group written: not given here. Hyp = O=C(O)[C@@H]1C[C@@H](O)CN1; cY = chlorotyrosine; Ahx = NCCCCCC(=O)O

Tests used:
MDA-MB-435 tumors [1] = assay: Small molecule vascular disrupting agents: induction of coagulation in tumors (fibrinogen/albumin tropism); format: in vivo, mice; conditions: i.p. DMXAA 20 mg/kg or colchicine 1 mg/kg; 24 hours
Experimental: Mice bearing MDA-MB-435 tumors were intravenously injected with a mixture of fibrinogen and albumin that had been labeled with unique near-infrared fluorophores (VT750 and VT680, respectively). Immediately after injection, mice were intraperitoneally injected with DMXAA (20 mg/kg) in 200 microliters of sodium bicarbonate buffer or vehicle. At 24 hours after injections, mice were sacrificed and organs removed for fluorescent quantification of protein tropism to tumors (* indicates p=0.014; n=6). […] Mice bearing bilateral MDA-MB-435 tumors were intravenously injected with a mixture of fibrinogen and albumin that had been labeled with unique near-infrared fluorophores (VT750 and VT680, respectively). […] At 24 hours after injections, mice were sacrificed and organs removed for fluorescent quantification of protein tropism to tumors.

MDA-MB-435 tumor = assay: Autonomous communication between tTF signaling components and FXIII-NW receivers; format: in vivo, mice; conditions: tTF-RGD+FXIII-NWs plus heparin 800 units/kg i.v. + 500 units/kg i.p.
Experimental: For autonomously-communicating nanosystems, NIR-fluorophore-labeled peptide-bearing NWs (bearing VT750 fluorophores) were intravenously (2 mg Fe/kg) in PBS to unanaesthetized MDA-MB-435 tumor-bearing nu/nu mice alone or alongside various tTF signaling components (25 micrograms). At 24 hours post-NW injection, the mice were sacrificed and organs were analyzed for NIR receiver fluorescence (LI-COR Odyssey Infrared Imaging System). For intraoperative fluorescent tumor imaging, mice were anaesthesized and tumours were surgically exposed to reveal detailed tumor fluorescence (LI-COR). The levels of NW homing to tumors were plotted by comparing the average NW fluorescence in fully-excised tumours (n=4 mice at each condition). For whole animal organ distribution, tTF-RGD signaling components were administered intraperitoneally (25 micrograms) and FXIII-NWs were administered intravenously (2 mg Fe/kg) to unanaesthetized mice bearing an MDA-MB-435 tumor.
Nu/nu mice bearing a single MDA-MB-435 tumor were intravenously injected with communicating (tTF-RGD+FXIII-NWs) or control (tTF-RGD+control-NWs) systems, FXIII-NWs alone, or NWs targeted by the peptide used to direct signaling component tumor homing (1 mg/kg tTF-RGD). At 24 hours post-injection, tumors were surgically exposed for fluorescent intraoperative imaging of NW homing. […]

ICAM-1 = assay: Induction of ICAM-1 expression in HUVECs (immuno-staining); format: cell-based, Human; conditions: 10 ng/ml overnight
Experimental: This example illustrates the induction of ICAM-1 expression in HUVECs. […] Human Umbilical Vein Endothelial Cells (HUVECs) were cultured on slides coated with gelatin in Medium 200 supplemented with LSGS (Cascade Biologics/Invitrogen). One day after plating, cells were treated with 10 ng/ml TNF-alpha or vehicle alone overnight. The next day cells were fixed and immuno-stained for ICAM-1 expression (antibody from Cell Signaling).

MDA-MB-435 tumors [2] = assay: Integrated PEG-NR signaling / FXIII-NW receiver communication, NIR fluorescence imaging; format: in vivo, mice; conditions: PEG-NRs 10 mg Au/kg, 72 h later NWs i.v. + 810 nm ~0.75 W/cm^2 20 min; imaging at 96 hours
Experimental: (§1) Quantifying NW homing to tumors: Mixtures of NIR-fluorophore-labeled, targeted and control NWs (bearing VT750 and VT680 or VT680 and VT750, respectively) were co-adminstered intravenously in PBS (2 mg Fe/kg) to tumor-bearing nu/nu mice to provide an internal control reference for coagulation-specific NW homing. At 24 hours post-NW injection, mice were sacrificed and organs were analyzed for both NIR-fluorophores (LI-COR Odyssey Infrared Imaging System). For integrated nanoparticle system characterization, mice were additionally imaged under isofluorane anaesthetic before euthanization using a whole animal fluorescence reflectance imaging system (Xenogen, IVIS Imaging System) to visualize the specificity of NW homing to tumors. […] For initial characterization, levels of targeted and control NW homing were plotted by comparing the average NW fluorescence in heated tumors versus unheated tumors (n=4 mice at each temperature). For integrated network evaluation, levels were plotted by comparing the average targeted and untargeted NW fluorescence in irradiated tumors versus un-irradiated tumors (n=4 mice for all conditions).
PEG-NRs (or saline) were intravenously-injected into mice bearing bilateral MDA-MB-435 tumors. […]

MDA-MB-435 tumors [3] = assay: Nanoworm receiver homing to externally heated tumors; format: in vivo, mice; conditions: 24 hours
Experimental: as §1
Having observed that external heating of tumors produced localized coagulation, this response was utilized in an assay to assess the ability of receivers to target tumor coagulation prior to integrating them with signaling components. […]

[4] = biological target: T1, coagulation transglutaminase Factor XIII (mouse, UniProt Q8BH61 39-732); assay: cell-based or functional assay
T1 sequence (looked up): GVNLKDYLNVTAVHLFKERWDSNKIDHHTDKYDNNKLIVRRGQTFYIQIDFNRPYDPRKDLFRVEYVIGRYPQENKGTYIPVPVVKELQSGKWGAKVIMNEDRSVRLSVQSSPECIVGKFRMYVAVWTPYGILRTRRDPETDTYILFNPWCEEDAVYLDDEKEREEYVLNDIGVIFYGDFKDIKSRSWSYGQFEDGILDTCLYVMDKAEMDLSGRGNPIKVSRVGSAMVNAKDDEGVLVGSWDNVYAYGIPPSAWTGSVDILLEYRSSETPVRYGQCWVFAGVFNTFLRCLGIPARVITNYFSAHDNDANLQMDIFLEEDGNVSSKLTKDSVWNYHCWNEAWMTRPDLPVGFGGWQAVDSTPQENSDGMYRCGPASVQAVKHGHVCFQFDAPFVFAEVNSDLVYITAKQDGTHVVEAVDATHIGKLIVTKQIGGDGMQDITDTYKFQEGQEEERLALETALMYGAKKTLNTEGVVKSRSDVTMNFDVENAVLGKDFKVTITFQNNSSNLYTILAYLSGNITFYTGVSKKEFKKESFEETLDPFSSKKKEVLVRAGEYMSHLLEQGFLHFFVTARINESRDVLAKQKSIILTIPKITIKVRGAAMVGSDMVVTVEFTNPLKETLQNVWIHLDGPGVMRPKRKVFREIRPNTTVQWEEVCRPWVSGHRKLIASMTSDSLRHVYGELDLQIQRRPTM

[5] = biological target: fibrin (polymerized fibrin deposited in heated tumors of mice) (mouse, UniProt E9PV24 37-789; Q8K0E8 35-481; Q8VCM7 26-436, limits assumed); assay: cell-based or functional assay
Sequence of fibrin (polymerized fibrin deposited in heated tumors of mice) (E9PV24 37-789 limits assumed, chain 1 of 3): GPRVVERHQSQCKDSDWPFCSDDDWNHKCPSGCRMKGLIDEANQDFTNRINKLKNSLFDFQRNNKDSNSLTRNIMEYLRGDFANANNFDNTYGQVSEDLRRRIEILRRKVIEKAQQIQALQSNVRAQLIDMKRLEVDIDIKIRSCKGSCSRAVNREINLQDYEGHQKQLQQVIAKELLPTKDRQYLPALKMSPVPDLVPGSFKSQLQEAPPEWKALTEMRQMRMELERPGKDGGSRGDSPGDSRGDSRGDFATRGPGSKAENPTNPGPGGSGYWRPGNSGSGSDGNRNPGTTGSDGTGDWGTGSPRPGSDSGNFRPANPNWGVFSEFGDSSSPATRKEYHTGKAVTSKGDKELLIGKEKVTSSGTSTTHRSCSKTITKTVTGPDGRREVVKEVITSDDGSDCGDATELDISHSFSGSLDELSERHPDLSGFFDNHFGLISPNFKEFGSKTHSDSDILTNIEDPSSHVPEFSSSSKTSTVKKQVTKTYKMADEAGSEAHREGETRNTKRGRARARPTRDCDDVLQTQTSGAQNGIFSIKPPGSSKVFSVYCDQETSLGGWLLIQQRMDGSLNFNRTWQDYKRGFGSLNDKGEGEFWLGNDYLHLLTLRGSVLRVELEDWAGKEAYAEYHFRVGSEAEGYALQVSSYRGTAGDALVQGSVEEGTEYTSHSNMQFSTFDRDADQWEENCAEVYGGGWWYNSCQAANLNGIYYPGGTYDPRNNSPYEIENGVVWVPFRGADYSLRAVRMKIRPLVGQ
Sequence of fibrin (polymerized fibrin deposited in heated tumors of mice) (Q8K0E8 35-481 limits assumed, chain 2 of 3): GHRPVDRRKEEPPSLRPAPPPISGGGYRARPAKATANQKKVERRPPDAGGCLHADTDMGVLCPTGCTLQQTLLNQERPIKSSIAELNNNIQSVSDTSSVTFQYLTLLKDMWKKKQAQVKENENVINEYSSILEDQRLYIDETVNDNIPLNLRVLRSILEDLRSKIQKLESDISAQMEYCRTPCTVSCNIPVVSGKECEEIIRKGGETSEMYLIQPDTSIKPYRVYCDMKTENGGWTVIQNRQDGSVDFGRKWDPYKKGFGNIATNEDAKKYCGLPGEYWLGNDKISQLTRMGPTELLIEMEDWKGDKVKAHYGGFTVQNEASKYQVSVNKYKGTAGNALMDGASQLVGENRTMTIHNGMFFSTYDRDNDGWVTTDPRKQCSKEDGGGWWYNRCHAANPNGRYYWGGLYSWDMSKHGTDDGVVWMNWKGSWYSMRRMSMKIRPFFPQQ
Sequence of fibrin (polymerized fibrin deposited in heated tumors of mice) (Q8VCM7 26-436 limits assumed, chain 3 of 3): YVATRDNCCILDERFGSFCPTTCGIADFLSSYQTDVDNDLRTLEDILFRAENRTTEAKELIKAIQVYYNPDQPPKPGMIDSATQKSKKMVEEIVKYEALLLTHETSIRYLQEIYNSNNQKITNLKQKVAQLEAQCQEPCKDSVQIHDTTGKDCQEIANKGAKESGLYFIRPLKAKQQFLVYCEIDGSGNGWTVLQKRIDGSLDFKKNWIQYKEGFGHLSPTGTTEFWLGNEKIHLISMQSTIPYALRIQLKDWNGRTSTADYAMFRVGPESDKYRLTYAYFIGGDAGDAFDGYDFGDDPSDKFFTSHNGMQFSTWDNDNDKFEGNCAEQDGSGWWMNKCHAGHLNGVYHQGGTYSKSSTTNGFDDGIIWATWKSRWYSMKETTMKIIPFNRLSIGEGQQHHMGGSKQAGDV

For `Cc1ccc2c(=O)c3cccc(CC(=O)O)c3oc2c1C` [DMXAA, 5,6-dimethylxanthenone-4-acetic acid], the “induction of coagulation in tumors” value (MDA-MB-435 tumors [1]) was “specifically induced coagulation in tumors”.

heparin was tested, and the “amplified vascular targeting when coagulation inhibitor administered alongside the integrated system” value (MDA-MB-435 tumor) was “absent”.

TNF-alpha was tested, and the “ICAM-1 expression on the cell surface” value (ICAM-1) was “upregulation of ICAM-1 on the cell surface”.

In the case of “FXIII-NWs: magnetofluorescent iron oxide nanoworms derivatized with a peptide substrate for coagulation transglutaminase Factor XIII (SEQ ID NO: 2) (GNQEQVSPLTLLK[Ahx]CK-Fluorescein; not fully specified (residue 15))”, the “increase in accumulation in NR-heated tumors above unirradiated contralateral tumors and tumors on saline-injected mice” value (MDA-MB-435 tumors [2]) is reported as “over an order of magnitude”, the “histopathological distribution in heated tumors compared with controls” value (MDA-MB-435 tumors [3]; heated tumors) is reported as “marked extravasation and interstitial spreading” and the “increase in tumor targeting, heated compared to unheated tumors” value (MDA-MB-435 tumors [3]; one tumor heated at 45° C. in water bath 20 min) is reported as “nearly an order of magnitude”.

B1: peptide substrate for the transglutaminase Factor XIII, G-N-Q-E-Q-V-S-P-L-T-L-L-K-X-C-(K-Fluorescein) (peptide)
peptide: GNQEQVSPLTLLK[Ahx]CK-Fluorescein
modifications: also: coupled through the exogenous Cys to nanoworm or liposome carrier
B1 was tested, and the “accumulation of FXIII-substrate receiving NWs in tumors heated to 45 C against unheated tumors (in vivo, NIR fluorescence at 24 hours)” value [4] was about 10 fold, the “accumulation of FXIII-targeted NWs in nanorod-heated tumors against unirradiated contralateral tumors and tumors on saline-injected mice (in vivo, whole-animal fluorescence)” value [4] was over 10 fold and the “doxorubicin accumulation in tumors heated to 45 C against unheated controls, FXIII-substrate liposomes (in vivo)” value [4] was over 40 fold. The “doxorubicin accumulation in tumors, NR signaling components plus FXIII-LP receivers against the LPs alone (in vivo)” value [4] was over 40 fold.

B2: fibrin-binding peptide Ac-d-d-d-G-Y-e-C-hyP-cY-G-L-C-Y-I-Q-K-Fluorescein (peptide)
peptide: Ac-[dD][dD][dD]GY[dE]C[Hyp][cY]GLCYIQK-Fluorescein
modifications: disulfide 7-12 (inferred); not fully specified; printed as Ac-d-d-d-G-Y-e-C-hyP-cY-G-L-C-Y-I-Q-K-Fluorescein; also: attached to nanoworm via the Lys with NHS-PEO5-NHS linker
With B2 the “targeting of fibrin-binding receiving NWs to heated tumors against unheated tumors (in vivo, NIR fluorescence)” value [5] was about 10 fold.
